T1: SNTG1, Q9NSN8
T1 sequence (Q9NSN8 52-150, limits assumed, looked up): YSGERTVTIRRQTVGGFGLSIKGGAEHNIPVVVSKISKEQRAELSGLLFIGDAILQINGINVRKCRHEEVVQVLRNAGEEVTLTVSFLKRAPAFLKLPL

T2: TX1BP3, O14907
T2 sequence (O14907 10-122, limits assumed, looked up): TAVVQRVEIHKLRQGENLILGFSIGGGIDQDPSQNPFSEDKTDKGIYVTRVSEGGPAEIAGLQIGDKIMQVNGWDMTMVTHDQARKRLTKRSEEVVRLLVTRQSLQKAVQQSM

T3: LIN7B, Q9HAP6
T3 sequence (Q9HAP6 88-185, limits assumed, looked up): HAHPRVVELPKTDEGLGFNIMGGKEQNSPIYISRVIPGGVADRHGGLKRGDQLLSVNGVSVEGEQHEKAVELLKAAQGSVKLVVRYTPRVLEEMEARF

T4: PCLO, Q9Y6V0
T4 sequence (Q9Y6V0 4491-4600, limits assumed, looked up): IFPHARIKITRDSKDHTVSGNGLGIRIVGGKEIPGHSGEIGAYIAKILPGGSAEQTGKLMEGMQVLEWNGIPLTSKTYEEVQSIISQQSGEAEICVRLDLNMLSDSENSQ

T5: DLG3_1, Q92796
T5 sequence (Q92796 125-227, limits assumed, looked up): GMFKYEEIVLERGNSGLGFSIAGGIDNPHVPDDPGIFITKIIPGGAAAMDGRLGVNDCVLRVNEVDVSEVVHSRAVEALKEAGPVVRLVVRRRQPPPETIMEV

T6: HTRA3, P83110
T6 sequence (P83110 354-453, limits assumed, looked up): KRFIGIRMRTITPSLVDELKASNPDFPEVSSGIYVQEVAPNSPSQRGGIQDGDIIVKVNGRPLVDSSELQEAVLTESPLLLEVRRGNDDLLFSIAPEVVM

T7: TIAM2, Q8IVF5
T7 sequence (Q8IVF5 885-986, limits assumed, looked up): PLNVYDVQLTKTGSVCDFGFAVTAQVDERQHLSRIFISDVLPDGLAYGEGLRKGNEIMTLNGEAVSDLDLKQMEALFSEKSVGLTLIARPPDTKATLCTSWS

T8: RAPGEF6, Q8TEU7
T8 sequence (Q8TEU7 525-625, limits assumed, looked up): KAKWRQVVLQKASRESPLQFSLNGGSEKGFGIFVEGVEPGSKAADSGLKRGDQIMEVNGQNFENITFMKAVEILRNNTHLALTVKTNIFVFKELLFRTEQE

T9: PDZD2_2, O15018
T9 sequence (O15018 329-429, limits assumed, looked up): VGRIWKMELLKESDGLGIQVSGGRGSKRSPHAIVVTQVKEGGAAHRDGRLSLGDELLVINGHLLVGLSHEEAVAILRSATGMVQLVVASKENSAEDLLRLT


target: T1, SNTG1, Q9NSN8; assay: holdup assay; parameters: key: below the threshold = too weak to quantify, mostly under pKd 3.1 to 4; conditions: plain residues with an end cap or a label only (N-terminal biotin on a linker: ado-ado)

Binder	pKd
GIKKITSTAL [RPS6KA3, P51812]	3.68
PSHPRLQTHV [KIRREL2, Q6UWL6]	below the threshold

target: Inadl_9, Q8NI35; assay: holdup assay; parameters: key: below the threshold = too weak to quantify, mostly under pKd 3.1 to 4; conditions: plain residues with an end cap or a label only (N-terminal biotin on a linker: ado-ado)
Sequence (Q8NI35 1530-1615): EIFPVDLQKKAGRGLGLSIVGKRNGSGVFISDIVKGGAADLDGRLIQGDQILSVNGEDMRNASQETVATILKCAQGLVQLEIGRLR

Binder	pKd
GIKKITSTAL [RPS6KA3, P51812]	below the threshold
PSHPRLQTHV [KIRREL2, Q6UWL6]	below the threshold

target: DLG4_3, P78352; assay: holdup assay; parameters: key: below the threshold = too weak to quantify, mostly under pKd 3.1 to 4; conditions: plain residues with an end cap or a label only (N-terminal biotin on a linker: ado-ado)
Sequence (P78352 306-403): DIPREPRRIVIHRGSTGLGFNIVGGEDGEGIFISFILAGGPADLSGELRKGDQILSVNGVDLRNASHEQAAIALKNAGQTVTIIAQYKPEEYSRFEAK

Binder	pKd
GIKKITSTAL [RPS6KA3, P51812]	3.87
PSHPRLQTHV [KIRREL2, Q6UWL6]	3.86

target: T2, TX1BP3, O14907; assay: holdup assay; parameters: key: below the threshold = too weak to quantify, mostly under pKd 3.1 to 4; conditions: plain residues with an end cap or a label only (N-terminal biotin on a linker: ado-ado)

Binder	pKd
GIKKITSTAL [RPS6KA3, P51812]	4.59
PSHPRLQTHV [KIRREL2, Q6UWL6]	4.64

target: DLG4_2, P78352; assay: holdup assay; parameters: key: below the threshold = too weak to quantify, mostly under pKd 3.1 to 4; conditions: plain residues with an end cap or a label only (N-terminal biotin on a linker: ado-ado)
Sequence (P78352 155-259): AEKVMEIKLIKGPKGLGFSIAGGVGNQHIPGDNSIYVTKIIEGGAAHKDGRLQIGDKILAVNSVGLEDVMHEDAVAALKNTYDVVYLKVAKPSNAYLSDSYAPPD

Binder	pKd
GIKKITSTAL [RPS6KA3, P51812]	4.18
PSHPRLQTHV [KIRREL2, Q6UWL6]	4.48

target: HTRA2, O43464; assay: holdup assay; parameters: key: below the threshold = too weak to quantify, mostly under pKd 3.1 to 4; conditions: plain residues with an end cap or a label only (N-terminal biotin on a linker: ado-ado)
Sequence (O43464 355-458): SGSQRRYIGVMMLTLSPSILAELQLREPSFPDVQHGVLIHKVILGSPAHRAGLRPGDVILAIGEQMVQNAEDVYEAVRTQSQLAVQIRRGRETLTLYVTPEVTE

Binder	pKd
GIKKITSTAL [RPS6KA3, P51812]	3.55
PSHPRLQTHV [KIRREL2, Q6UWL6]	below the threshold

target: Inadl_1, Q8NI35; assay: holdup assay; parameters: key: below the threshold = too weak to quantify, mostly under pKd 3.1 to 4; conditions: plain residues with an end cap or a label only (N-terminal biotin on a linker: ado-ado)
Sequence (Q8NI35 113-229): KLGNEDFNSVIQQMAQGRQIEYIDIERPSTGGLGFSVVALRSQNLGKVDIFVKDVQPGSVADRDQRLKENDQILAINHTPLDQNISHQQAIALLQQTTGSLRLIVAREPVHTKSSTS

Binder	pKd
GIKKITSTAL [RPS6KA3, P51812]	below the threshold
PSHPRLQTHV [KIRREL2, Q6UWL6]	below the threshold

target: SCRIB_3, Q14160; assay: holdup assay; parameters: key: below the threshold = too weak to quantify, mostly under pKd 3.1 to 4; conditions: plain residues with an end cap or a label only (N-terminal biotin on a linker: ado-ado)
Sequence (Q14160 999-1103): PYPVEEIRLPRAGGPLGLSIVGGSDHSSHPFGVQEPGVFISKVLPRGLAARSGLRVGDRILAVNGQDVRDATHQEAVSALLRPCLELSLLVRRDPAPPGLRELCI

Binder	pKd
GIKKITSTAL [RPS6KA3, P51812]	5.06
PSHPRLQTHV [KIRREL2, Q6UWL6]	4.26

target: NHERF4_2, Q86UT5; assay: holdup assay; parameters: key: below the threshold = too weak to quantify, mostly under pKd 3.1 to 4; conditions: plain residues with an end cap or a label only (N-terminal biotin on a linker: ado-ado)
Sequence (Q86UT5 220-308): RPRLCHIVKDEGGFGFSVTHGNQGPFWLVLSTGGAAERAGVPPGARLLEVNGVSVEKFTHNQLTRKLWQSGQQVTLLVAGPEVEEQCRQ

Binder	pKd
GIKKITSTAL [RPS6KA3, P51812]	3.55
PSHPRLQTHV [KIRREL2, Q6UWL6]	below the threshold

target: GOPC, Q9HD26; assay: holdup assay; parameters: key: below the threshold = too weak to quantify, mostly under pKd 3.1 to 4; conditions: plain residues with an end cap or a label only (N-terminal biotin on a linker: ado-ado)

Binder	pKd
GIKKITSTAL [RPS6KA3, P51812]	4.5
PSHPRLQTHV [KIRREL2, Q6UWL6]	below the threshold

target: T3, LIN7B, Q9HAP6; assay: holdup assay; parameters: key: below the threshold = too weak to quantify, mostly under pKd 3.1 to 4; conditions: plain residues with an end cap or a label only (N-terminal biotin on a linker: ado-ado)

Binder	pKd
GIKKITSTAL [RPS6KA3, P51812]	below the threshold
PSHPRLQTHV [KIRREL2, Q6UWL6]	below the threshold

target: T4, PCLO, Q9Y6V0; assay: holdup assay; parameters: key: below the threshold = too weak to quantify, mostly under pKd 3.1 to 4; conditions: plain residues with an end cap or a label only (N-terminal biotin on a linker: ado-ado)

Binder	pKd
GIKKITSTAL [RPS6KA3, P51812]	below the threshold
PSHPRLQTHV [KIRREL2, Q6UWL6]	below the threshold

target: TJP2_1, Q9UDY2; assay: holdup assay; parameters: key: below the threshold = too weak to quantify, mostly under pKd 3.1 to 4; conditions: plain residues with an end cap or a label only (N-terminal biotin on a linker: ado-ado)
Sequence (Q9UDY2 24-128): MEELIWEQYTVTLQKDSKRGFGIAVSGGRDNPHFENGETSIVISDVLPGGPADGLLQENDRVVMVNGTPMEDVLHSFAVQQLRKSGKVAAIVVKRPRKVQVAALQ

Binder	pKd
GIKKITSTAL [RPS6KA3, P51812]	3.89
PSHPRLQTHV [KIRREL2, Q6UWL6]	4.58

target: PDLIM1, O00151; assay: holdup assay; parameters: key: below the threshold = too weak to quantify, mostly under pKd 3.1 to 4; conditions: plain residues with an end cap or a label only (N-terminal biotin on a linker: ado-ado)
Sequence (O00151 1-87): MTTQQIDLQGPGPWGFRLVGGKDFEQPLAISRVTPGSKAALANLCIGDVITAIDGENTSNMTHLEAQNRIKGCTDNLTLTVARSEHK

Binder	pKd
GIKKITSTAL [RPS6KA3, P51812]	3.48
PSHPRLQTHV [KIRREL2, Q6UWL6]	below the threshold

target: IL16_4, Q14005; assay: holdup assay; parameters: key: below the threshold = too weak to quantify, mostly under pKd 3.1 to 4; conditions: plain residues with an end cap or a label only (N-terminal biotin on a linker: ado-ado)
Sequence (Q14005 1229-1329): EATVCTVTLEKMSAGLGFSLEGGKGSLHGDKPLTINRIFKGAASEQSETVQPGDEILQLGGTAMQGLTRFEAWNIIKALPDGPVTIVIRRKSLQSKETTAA

Binder	pKd
GIKKITSTAL [RPS6KA3, P51812]	3.78
PSHPRLQTHV [KIRREL2, Q6UWL6]	below the threshold

target: T5, DLG3_1, Q92796; assay: holdup assay; parameters: key: below the threshold = too weak to quantify, mostly under pKd 3.1 to 4; conditions: plain residues with an end cap or a label only (N-terminal biotin on a linker: ado-ado)

Binder	pKd
GIKKITSTAL [RPS6KA3, P51812]	3.61
PSHPRLQTHV [KIRREL2, Q6UWL6]	3.55

target: T6, HTRA3, P83110; assay: holdup assay; parameters: key: below the threshold = too weak to quantify, mostly under pKd 3.1 to 4; conditions: plain residues with an end cap or a label only (N-terminal biotin on a linker: ado-ado)

Binder	pKd
GIKKITSTAL [RPS6KA3, P51812]	below the threshold
PSHPRLQTHV [KIRREL2, Q6UWL6]	below the threshold

target: LAP2, Q96RT1; assay: holdup assay; parameters: key: below the threshold = too weak to quantify, mostly under pKd 3.1 to 4; conditions: plain residues with an end cap or a label only (N-terminal biotin on a linker: ado-ado)
Sequence (Q96RT1 other isoform, or with tags, fused parts or gaps): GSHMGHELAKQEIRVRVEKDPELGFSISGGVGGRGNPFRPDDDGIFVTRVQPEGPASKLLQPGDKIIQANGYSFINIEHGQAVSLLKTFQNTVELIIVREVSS

Binder	pKd
GIKKITSTAL [RPS6KA3, P51812]	below the threshold
PSHPRLQTHV [KIRREL2, Q6UWL6]	below the threshold

target: FRMPD2_1, Q68DX3; assay: holdup assay; parameters: key: below the threshold = too weak to quantify, mostly under pKd 3.1 to 4; conditions: plain residues with an end cap or a label only (N-terminal biotin on a linker: ado-ado)
Sequence (Q68DX3 770-861): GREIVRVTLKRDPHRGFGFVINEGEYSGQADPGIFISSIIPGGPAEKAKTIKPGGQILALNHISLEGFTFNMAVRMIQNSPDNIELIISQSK

Binder	pKd
GIKKITSTAL [RPS6KA3, P51812]	3.54
PSHPRLQTHV [KIRREL2, Q6UWL6]	below the threshold

target: TJP1_3, Q07157; assay: holdup assay; parameters: key: below the threshold = too weak to quantify, mostly under pKd 3.1 to 4; conditions: plain residues with an end cap or a label only (N-terminal biotin on a linker: ado-ado)
Sequence (Q07157 416-512): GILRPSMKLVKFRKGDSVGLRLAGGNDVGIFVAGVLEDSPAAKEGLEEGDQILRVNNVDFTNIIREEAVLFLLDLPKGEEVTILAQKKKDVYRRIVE

Binder	pKd
GIKKITSTAL [RPS6KA3, P51812]	below the threshold
PSHPRLQTHV [KIRREL2, Q6UWL6]	below the threshold

target: MAGI2_3, Q86UL8; assay: holdup assay; parameters: key: below the threshold = too weak to quantify, mostly under pKd 3.1 to 4; conditions: plain residues with an end cap or a label only (N-terminal biotin on a linker: ado-ado)
Sequence (Q86UL8 600-682): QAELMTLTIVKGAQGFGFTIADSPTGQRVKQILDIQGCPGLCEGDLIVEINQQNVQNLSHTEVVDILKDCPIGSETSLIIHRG

Binder	pKd
GIKKITSTAL [RPS6KA3, P51812]	3.51
PSHPRLQTHV [KIRREL2, Q6UWL6]	3.67

target: Inadl_6, Q8NI35; assay: holdup assay; parameters: key: below the threshold = too weak to quantify, mostly under pKd 3.1 to 4; conditions: plain residues with an end cap or a label only (N-terminal biotin on a linker: ado-ado)
Sequence (Q8NI35 1058-1167): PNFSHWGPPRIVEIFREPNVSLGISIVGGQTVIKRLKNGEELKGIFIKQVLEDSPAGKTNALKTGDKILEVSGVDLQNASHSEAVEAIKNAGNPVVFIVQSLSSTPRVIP

Binder	pKd
GIKKITSTAL [RPS6KA3, P51812]	3.57
PSHPRLQTHV [KIRREL2, Q6UWL6]	below the threshold

target: T7, TIAM2, Q8IVF5; assay: holdup assay; parameters: key: below the threshold = too weak to quantify, mostly under pKd 3.1 to 4; conditions: plain residues with an end cap or a label only (N-terminal biotin on a linker: ado-ado)

Binder	pKd
GIKKITSTAL [RPS6KA3, P51812]	below the threshold
PSHPRLQTHV [KIRREL2, Q6UWL6]	3.73

target: GRIP2_4, Q9C0E4; assay: holdup assay; parameters: key: below the threshold = too weak to quantify, mostly under pKd 3.1 to 4; conditions: plain residues with an end cap or a label only (N-terminal biotin on a linker: ado-ado)
Sequence (Q9C0E4 446-548): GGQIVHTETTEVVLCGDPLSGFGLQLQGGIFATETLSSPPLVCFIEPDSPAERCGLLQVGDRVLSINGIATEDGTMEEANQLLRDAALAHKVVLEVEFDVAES

Binder	pKd
GIKKITSTAL [RPS6KA3, P51812]	below the threshold
PSHPRLQTHV [KIRREL2, Q6UWL6]	below the threshold

target: FRMPD2_2, Q68DX3; assay: holdup assay; parameters: key: below the threshold = too weak to quantify, mostly under pKd 3.1 to 4; conditions: plain residues with an end cap or a label only (N-terminal biotin on a linker: ado-ado)
Sequence (Q68DX3 944-1038): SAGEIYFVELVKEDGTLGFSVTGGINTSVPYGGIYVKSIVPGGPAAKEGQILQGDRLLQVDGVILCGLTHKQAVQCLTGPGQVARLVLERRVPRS

Binder	pKd
GIKKITSTAL [RPS6KA3, P51812]	3.5
PSHPRLQTHV [KIRREL2, Q6UWL6]	below the threshold

target: LNX1_1, Q8TBB1; assay: holdup assay; parameters: key: below the threshold = too weak to quantify, mostly under pKd 3.1 to 4; conditions: plain residues with an end cap or a label only (N-terminal biotin on a linker: ado-ado)
Sequence (Q8TBB1 261-371): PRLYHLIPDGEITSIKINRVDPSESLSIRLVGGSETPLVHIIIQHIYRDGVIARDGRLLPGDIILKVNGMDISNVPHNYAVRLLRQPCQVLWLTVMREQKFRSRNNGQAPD

Binder	pKd
GIKKITSTAL [RPS6KA3, P51812]	3.8
PSHPRLQTHV [KIRREL2, Q6UWL6]	below the threshold

target: T8, RAPGEF6, Q8TEU7; assay: holdup assay; parameters: key: below the threshold = too weak to quantify, mostly under pKd 3.1 to 4; conditions: plain residues with an end cap or a label only (N-terminal biotin on a linker: ado-ado)

Binder	pKd
GIKKITSTAL [RPS6KA3, P51812]	below the threshold
PSHPRLQTHV [KIRREL2, Q6UWL6]	below the threshold

target: T9, PDZD2_2, O15018; assay: holdup assay; parameters: key: below the threshold = too weak to quantify, mostly under pKd 3.1 to 4; conditions: plain residues with an end cap or a label only (N-terminal biotin on a linker: ado-ado)

Binder	pKd
GIKKITSTAL [RPS6KA3, P51812]	3.57
PSHPRLQTHV [KIRREL2, Q6UWL6]	4.23

From article PMC9482650, “Quantitative fragmentomics allow affinity mapping of interactomes” (Nature Communications, 2022)
